Source: article PMC10679500, “Posttranslational modification and heme cavity architecture of human eosinophil peroxidase—insights from first crystal structure and biochemical characterization” (The Journal of Biological Chemistry, 2023)

Molecular target: T1, eosinophil peroxidase heavy chain (human, UniProt P11678 251-715, Glu380 ester-linked to the heme cofactor (hydroxymethyl group on pyrrole ring A); N-glycans at Asn327 and Asn363)
T1 construct: human eosinophil peroxidase (EPO), C-terminal heavy chain of the mature enzyme; G250/V251-T715; N-terminus heterogeneous (G250 or V251); first resolved residue in the crystal is Val251; One of the two polypeptides of mature leukocyte EPO; part of the sample may begin at G250; A mixture of glycoforms was crystallized; also called EPO H-chain; HC
T1 sequence (looked up): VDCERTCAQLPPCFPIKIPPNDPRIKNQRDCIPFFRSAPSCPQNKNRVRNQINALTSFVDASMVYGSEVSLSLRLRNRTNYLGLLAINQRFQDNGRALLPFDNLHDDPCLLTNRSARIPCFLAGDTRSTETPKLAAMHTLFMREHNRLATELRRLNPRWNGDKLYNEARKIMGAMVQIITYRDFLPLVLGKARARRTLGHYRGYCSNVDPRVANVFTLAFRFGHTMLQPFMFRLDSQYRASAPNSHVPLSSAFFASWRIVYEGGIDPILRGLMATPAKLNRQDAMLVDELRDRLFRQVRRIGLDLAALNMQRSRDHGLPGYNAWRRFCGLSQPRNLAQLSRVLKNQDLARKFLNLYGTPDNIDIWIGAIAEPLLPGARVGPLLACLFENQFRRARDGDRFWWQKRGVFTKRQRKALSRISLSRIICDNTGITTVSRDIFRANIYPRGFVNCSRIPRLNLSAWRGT
Assay: crystal structure; mixture of EPO glycoforms from human leukocytes, 10 mg/ml in 5 mM phosphate pH 7.0; crystallized in 0.2 M trisodium citrate pH 4.1, 20% (w/v) PEG, vapor diffusion, 22 °C; 1.6 Å; one monomer per asymmetric unit
Conditions: both partners purified

binding result: binds
B1: eosinophil peroxidase light chain (domain or fragment)
chain: not shown
modifications: Asp232 ester-linked to the heme cofactor (hydroxymethyl group on pyrrole ring C)
notes: human eosinophil peroxidase (EPO), N-terminal light chain of the mature enzyme after removal of signal peptide, propeptide (18-139) and the peptide V/AFTA/G; R140-R244/V245; C-terminus heterogeneous by MS (77.2% arginine, 23.8% valine as terminal residue); last resolved residue in the crystal is Arg244; One of the two polypeptides of mature leukocyte EPO; a minor part of the sample ends at V245; …
